# Reference: patent US20250320281A1
# Experiments:
# WT JR-FL gp120 (HIV-1) = experiment: ELISA, antigen-coated wells
# [1] = target: HIV-1 MGRM-C-026 Env (pseudovirus) (HIV-1); experiment: cell-based or functional assay
# [2] = target: HIV-1 94UG103 Env (pseudovirus) (HIV-1); experiment: cell-based or functional assay
# [3] = target: HIV-1 92UG024 Env (pseudovirus) (HIV-1); experiment: cell-based or functional assay
# [4] = target: HIV-1 Env of isolate MGRM-C-019 (HIV-1); experiment: cell-based or functional assay
# [5] = target: HIV-1 Env of isolate MGRM-C-022 (HIV-1); experiment: cell-based or functional assay
# [6] = target: HIV-1 Env of isolate MGRM-C-023 (HIV-1); experiment: cell-based or functional assay
# [7] = target: HIV-1 MGRM-D-018 Env (pseudovirus) (HIV-1); experiment: cell-based or functional assay
# [8] = target: HIV-1 Env of pseudovirus isolate MGRM-G-001 (HIV-1); experiment: cell-based or functional assay
# [9] = target: HIV-1 Env of pseudovirus isolate MGRM-G-011 (HIV-1); experiment: cell-based or functional assay
# [10] = target: HIV-1 93IN905 Env (pseudovirus) (HIV-1); experiment: cell-based or functional assay
# [11] = target: HIV-1 Env of isolate MGRM-C-010 (HIV-1); experiment: cell-based or functional assay
# [12] = target: HIV-1 Env of isolate MGRM-C-017 (HIV-1); experiment: cell-based or functional assay
# [13] = target: HIV-1 APV6 Env (pseudovirus) (HIV-1); experiment: cell-based or functional assay
# [14] = target: HIV-1 Env of pseudovirus isolate MGRM-G-027 (HIV-1); experiment: cell-based or functional assay
# [15] = target: HIV-1 Env of pseudovirus isolate MGRM-G-015 (HIV-1); experiment: cell-based or functional assay
# [16] = target: HIV-1 Env of pseudovirus isolate MGRM-G-009 (HIV-1); experiment: cell-based or functional assay
# [17] = target: HIV-1 Env of isolate MGRM-C-013 (HIV-1); experiment: cell-based or functional assay
# [18] = target: HIV-1 Env of isolate MGRM-C-025 (HIV-1); experiment: cell-based or functional assay
# [19] = target: envelope of aMLV pseudovirus (negative control); experiment: cell-based or functional assay
# [20] = target: HIV-1 MGRM-A-010 Env (pseudovirus) (HIV-1); experiment: cell-based or functional assay
# [21] = target: HIV-1 Env of isolate MGRM-C-014 (HIV-1); experiment: cell-based or functional assay
# [22] = target: HIV-1 Env of pseudovirus isolate MGRM-G-019 (HIV-1); experiment: cell-based or functional assay
# [23] = target: HIV-1 Env of isolate MGRM-C-012 (HIV-1); experiment: cell-based or functional assay
# [24] = target: HIV-1 Env of isolate MGRM-C-009 (HIV-1); experiment: cell-based or functional assay
# [25] = target: HIV-1 92RW020 Env (pseudovirus) (HIV-1); experiment: cell-based or functional assay
# [26] = target: HIV-1 Env of pseudovirus isolate MGRM-G-017 (HIV-1); experiment: cell-based or functional assay
# [27] = target: HIV-1 92UG005 Env (pseudovirus) (HIV-1); experiment: cell-based or functional assay
# [28] = target: HIV-1 Env of isolate MGRM-C-015 (HIV-1); experiment: cell-based or functional assay
# [29] = target: HIV-1 Env of pseudovirus isolate MGRM-G-013 (HIV-1); experiment: cell-based or functional assay
# [30] = target: HIV-1 CMU02 Env (pseudovirus) (HIV-1); experiment: cell-based or functional assay
# [31] = target: HIV-1 Env of isolate MGRM-C-006 (HIV-1); experiment: cell-based or functional assay
# [32] = target: HIV-1 Env of isolate MGRM-C-002 (HIV-1); experiment: cell-based or functional assay
# [33] = target: HIV-1 Env of isolate MGRM-C-020 (HIV-1); experiment: cell-based or functional assay
# [34] = target: HIV-1 92TH021 Env (pseudovirus) (HIV-1); experiment: cell-based or functional assay
# [35] = target: HIV-1 Env of pseudovirus isolate MGRM-G-004 (HIV-1); experiment: cell-based or functional assay
# [36] = target: HIV-1 NL43 Env (pseudovirus) (HIV-1); experiment: cell-based or functional assay
# [37] = target: HIV-1 Env of pseudovirus isolate MGRM-G-006 (HIV-1); experiment: cell-based or functional assay
# [38] = target: HIV-1 MGRM-C-028 Env (pseudovirus) (HIV-1); experiment: cell-based or functional assay
# [39] = target: HIV-1 Env of isolate MGRM-C-001 (HIV-1); experiment: cell-based or functional assay
# [40] = target: HIV-1 Env of pseudovirus isolate MGRM-G-014 (HIV-1); experiment: cell-based or functional assay
# [41] = target: HIV-1 Env of isolate MGRM-C-024 (HIV-1); experiment: cell-based or functional assay
# [42] = target: HIV-1 Env of isolate MGRM-C-008 (HIV-1); experiment: cell-based or functional assay
# [43] = target: HIV-1 Env of pseudovirus isolate MGRM-G-016 (HIV-1); experiment: cell-based or functional assay
# [44] = target: HIV-1 Env of isolate MGRM-C-004 (HIV-1); experiment: cell-based or functional assay
# [45] = target: HIV-1 Env of isolate MGRM-C-007 (HIV-1); experiment: cell-based or functional assay
# [46] = target: HIV-1 MGRM-C-027 Env (pseudovirus) (HIV-1); experiment: cell-based or functional assay
# [47] = target: HIV-1 Env of isolate MGRM-C-005 (HIV-1); experiment: cell-based or functional assay
# [48] = target: HIV-1 JRCSF Env (pseudovirus) (HIV-1) (UniProt P20871); experiment: cell-based or functional assay
substance,measurement,setting,value
4858_P08 (PGT-123) (antibody),EC50,WT JR-FL gp120 (HIV-1),0.2 µg/mL
same,neutralization IC50 (pseudovirus),[1],3.1 ng/mL
same,neutralization IC50 (pseudovirus),[2],0.846 µg/mL
same,neutralization IC50 (pseudovirus),[3],> 10 µg/mL
same,neutralization IC50,[4],> 50 µg/mL
same,neutralization IC50,[5],0.01 µg/mL
same,neutralization IC50,[6],0.011 µg/mL
same,neutralization IC50 (pseudovirus),[7],4.7 ng/mL
same,"IC50 (µg/mL), pseudovirus neutralization",[8],0.009 µg/mL
same,"IC50 (µg/mL), pseudovirus neutralization",[9],14.9 µg/mL
same,neutralization IC50 (pseudovirus),[10],0.0071 µg/mL
same,neutralization IC50,[11],> 50 µg/mL
same,neutralization IC50,[12],0.01 µg/mL
same,neutralization IC50 (pseudovirus),[13],0.0328 µg/mL
same,"IC50 (µg/mL), pseudovirus neutralization",[14],0.182 µg/mL
same,"IC50 (µg/mL), pseudovirus neutralization",[15],> 50 µg/mL
same,"IC50 (µg/mL), pseudovirus neutralization",[16],33.5 µg/mL
same,neutralization IC50,[17],14.9 µg/mL
same,neutralization IC50,[18],13.3 µg/mL
same,"IC50 (µg/mL), pseudovirus neutralization",[19],> 50 µg/mL
same,neutralization IC50 (pseudovirus),[20],0.492 µg/mL
same,neutralization IC50,[21],1 µg/mL
same,"IC50 (µg/mL), pseudovirus neutralization",[22],0.008 µg/mL
same,neutralization IC50,[23],0.606 µg/mL
same,neutralization IC50,[24],> 50 µg/mL
same,neutralization IC50 (pseudovirus),[25],3.8 ng/mL
same,"IC50 (µg/mL), pseudovirus neutralization",[26],0.026 µg/mL
same,neutralization IC50 (pseudovirus),[27],2.49 µg/mL
same,neutralization IC50,[28],13.1 µg/mL
same,"IC50 (µg/mL), pseudovirus neutralization",[29],3.97 µg/mL
same,neutralization IC50 (pseudovirus),[30],> 10 µg/mL
same,neutralization IC50,[31],0.021 µg/mL
same,neutralization IC50,[32],0.01 µg/mL
same,neutralization IC50,[33],> 50 µg/mL
same,neutralization IC50 (pseudovirus),[34],> 10 µg/mL
same,"IC50 (µg/mL), pseudovirus neutralization",[35],0.181 µg/mL
same,neutralization IC50 (pseudovirus),[36],> 10 µg/mL
same,"IC50 (µg/mL), pseudovirus neutralization",[37],> 50 µg/mL
same,neutralization IC50 (pseudovirus),[38],0.443 µg/mL
same,neutralization IC50,[39],42.4 µg/mL
same,"IC50 (µg/mL), pseudovirus neutralization",[40],0.005 µg/mL
same,neutralization IC50,[41],0.195 µg/mL
same,neutralization IC50,[42],0.011 µg/mL
same,"IC50 (µg/mL), pseudovirus neutralization",[43],> 50 µg/mL
same,neutralization IC50,[44],0.009 µg/mL
same,neutralization IC50,[45],0.547 µg/mL
same,neutralization IC50 (pseudovirus),[46],0.0169 µg/mL
same,neutralization IC50,[47],0.012 µg/mL
same,neutralization IC50 (pseudovirus),[48],0.0423 µg/mL
4877_D15 (PGT-122) (antibody),EC50,WT JR-FL gp120 (HIV-1),0.3 µg/mL
same,neutralization IC50 (pseudovirus),[1],8.9 ng/mL
same,neutralization IC50 (pseudovirus),[2],1.46 µg/mL
same,neutralization IC50 (pseudovirus),[3],> 10 µg/mL
same,neutralization IC50,[4],> 50 µg/mL
same,neutralization IC50,[5],0.012 µg/mL
same,neutralization IC50,[6],0.027 µg/mL
same,neutralization IC50 (pseudovirus),[7],11.5 ng/mL
same,"IC50 (µg/mL), pseudovirus neutralization",[8],0.005 µg/mL
same,"IC50 (µg/mL), pseudovirus neutralization",[9],31.3 µg/mL
same,neutralization IC50 (pseudovirus),[10],0.0138 µg/mL
same,neutralization IC50,[11],> 50 µg/mL
same,neutralization IC50,[12],0.015 µg/mL
same,neutralization IC50 (pseudovirus),[13],0.0851 µg/mL
same,"IC50 (µg/mL), pseudovirus neutralization",[14],0.606 µg/mL
same,"IC50 (µg/mL), pseudovirus neutralization",[15],> 50 µg/mL
same,"IC50 (µg/mL), pseudovirus neutralization",[16],0.514 µg/mL
same,neutralization IC50,[17],32.6 µg/mL
same,neutralization IC50,[18],8.69 µg/mL
same,"IC50 (µg/mL), pseudovirus neutralization",[19],> 50 µg/mL
same,neutralization IC50 (pseudovirus),[20],1.68 µg/mL
same,neutralization IC50,[21],> 50 µg/mL
same,"IC50 (µg/mL), pseudovirus neutralization",[22],0.016 µg/mL
same,neutralization IC50,[23],2 µg/mL
same,neutralization IC50,[24],> 50 µg/mL
same,neutralization IC50 (pseudovirus),[25],7.2 ng/mL
same,"IC50 (µg/mL), pseudovirus neutralization",[26],0.032 µg/mL
same,neutralization IC50 (pseudovirus),[27],> 10 µg/mL
same,neutralization IC50,[28],> 50 µg/mL
same,"IC50 (µg/mL), pseudovirus neutralization",[29],3.45 µg/mL
same,neutralization IC50 (pseudovirus),[30],> 10 µg/mL
same,neutralization IC50,[31],0.018 µg/mL
same,neutralization IC50,[32],0.022 µg/mL
same,neutralization IC50,[33],14 µg/mL
same,neutralization IC50 (pseudovirus),[34],> 10 µg/mL
same,"IC50 (µg/mL), pseudovirus neutralization",[35],2.15 µg/mL
same,neutralization IC50 (pseudovirus),[36],> 10 µg/mL
same,"IC50 (µg/mL), pseudovirus neutralization",[37],> 50 µg/mL
same,neutralization IC50 (pseudovirus),[38],2.06 µg/mL
same,neutralization IC50,[39],19.1 µg/mL
same,"IC50 (µg/mL), pseudovirus neutralization",[40],0.008 µg/mL
same,neutralization IC50,[41],0.102 µg/mL
same,neutralization IC50,[42],0.028 µg/mL
same,"IC50 (µg/mL), pseudovirus neutralization",[43],> 50 µg/mL
same,neutralization IC50,[44],0.02 µg/mL
same,neutralization IC50,[45],3.35 µg/mL
same,neutralization IC50 (pseudovirus),[46],0.0388 µg/mL
same,neutralization IC50,[47],0.027 µg/mL
same,neutralization IC50 (pseudovirus),[48],0.0727 µg/mL
